B1: TBC1D4 CTR (TBC1D4 1192-1299) with His6-tag (domain or fragment, human, UniProt O60343 1192-1298, looked up)
chain: SCEDSETLEKLERANSQLKRQNMDLLEKLQVAHTKIQALESNLENLLTRETKMKSLIRTLEQEKMAYQKTVEQLRKLLPADALVNCDLLLRDLNCNPNNKAKIGNKP
B2: TBC1D4 RabGAP-CTR1 (TBC1D4 865-1299) with His6-tag (domain or fragment, human, UniProt O60343 865-1298, looked up)
chain: ASRDELQSRKVKLDYEEVGACQKEVLITWDKKLLNCRAKIRCDMEDIHTLLKEGVPKSRRGEIWQFLALQYRLRHRLPNKQQPPDISYKELLKQLTAQQHAILVDLGRTFPTHPYFSVQLGPGQLSLFNLLKAYSLLDKEVGYCQGISFVAGVLLLHMSEEQAFEMLKFLMYDLGFRKQYRPDMMSLQIQMYQLSRLLHDYHRDLYNHLEENEISPSLYAAPWFLTLFASQFSLGFVARVFDIIFLQGTEVIFKVALSLLSSQETLIMECESFENIVEFLKNTLPDMNTSEMEKIITQVFEMDISKQLHAYEVEYHVLQDELQESSYSCEDSETLEKLERANSQLKRQNMDLLEKLQVAHTKIQALESNLENLLTRETKMKSLIRTLEQEKMAYQKTVEQLRKLLPADALVNCDLLLRDLNCNPNNKAKIGNKP

Target: the molecule itself
Experiment: AUC

Protein | stoichiometry N
B1 | 2
B2 | 2

From paper PMC5548637 (International journal of biological macromolecules, 2017)
